Patent US20200237928A1 (UNIVERSITY OF MIAMI, published 2020)
Side-chain parts run from the residue outwards. [ ]: non-standard residue; d: D form. Abu = CC[C@H](N)C(=O)O; Ahx = NCCCCCC(=O)O

Columns and labels:
[1] = target: T1, recombinant mouse IL4Rα extracellular domain (Ile26-Arg233), cleaved by factor Xa from the IL4Rα/human IgG1 … (mouse, UniProt P16382 26-233); assay: FACS; Alexa555-shRNA/4PD complexes titrated on IL4Rα-conjugated epoxybeads, 10 min at RT; apparent Kd; peptide conjugated to the dendrimer (4PD)
T1 construct: range 26-233; Factor Xa cleavage in the IEGRMD spacer may leave some spacer residues at the C-terminus; Covalently linked to M-450 epoxy beads; also called recombinant IL4Rα; IL4Rα conjugated epoxybeads
T1 sequence (looked up): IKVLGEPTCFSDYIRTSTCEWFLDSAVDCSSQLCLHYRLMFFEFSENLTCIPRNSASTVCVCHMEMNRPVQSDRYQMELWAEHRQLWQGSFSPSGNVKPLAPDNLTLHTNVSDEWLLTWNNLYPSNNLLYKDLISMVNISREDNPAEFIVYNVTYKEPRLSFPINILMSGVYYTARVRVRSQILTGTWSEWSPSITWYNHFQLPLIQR
Experimental: (§1) Epoxybeads were conjugated with recombinant IL4Rα and used as binding target of 4PD or of the targeting peptide. Briefly, the recombinant chimeric IL4Rα protein composed by the mouse IL4Rα (Ile26 Arg233) and the human IgG1 (Pro100 Lys330) linked by the IEGRMD spacer polypeptide and generated in the NSO myeloma cell line was purchased by R&D systems (Minneapolis, Minn., USA). The protein was treated for 24 hours with 1.5% w/w factor Xa (SIGMA. St. Louis, Mo., USA) in tris-HCl (20 mM) and NaCl (200 mM) to cleave the IL4Rα extracellular domain. Factor Xa was removed by the solution using the Factor Xa removal resin (QIAGEN, Valencia, Calif., USA) and following the manufacturer instruction. IgG-linker fraction was removed from the solution by using protein-A conjugated magnetic beads (Invitrogen, Carlsbad, Calif., USA). The purity obtained by this procedure assessed by SDS PAGE was higher than 95% with only trace of IgG (data not shown). The obtained IL4Rα fraction was linked to epoxy magnetic beads M-450 by an overnight (ON) incubation at room temperature (RT) of 20×10⁶ beads with 10 μg of protein in a final volume of 1 mL in a sodium phosphate buffer (pH:8.0). […] Correct conjugation was evaluated via FACs after labeling with an anti-IL4Rα antibody.
(§2) Next, the binding of the 4PD to the IL4Rα was evaluated. […] Beads were washed twice with PBS and the binding evaluated by FACS.

[2] = target: T1, recombinant mouse IL4Rα extracellular …; assay: FACS on IL4Rα-conjugated epoxybeads; 4PD against the FITC-peptide
Experimental: as §1, §2

B1: 4PD: G5 PAMAM dendrimer conjugated to the IL4Rα targeting peptide (acetyl)-LQRLFRAFR[Abu]LD[Ahx]C(amide), loaded with Alexa555-conjugated shRNA (other)
peptide: Ac-LQRLFRAFR[Abu]LD[Ahx]C([m‑maleimidobenzoyl-G5 PAMAM dendrimer])-NH2
modifications: also: several peptide copies on one G5 PAMAM dendrimer, complexed with Alexa555-labelled shRNA
notes: Not a plain protein: several copies of the peptide sit on a G5 PAMAM dendrimer (28,826 Da), complexed electrostatically with Alexa555-labelled scrambled shRNA; also called Alexa555-shRNA/4PD complexes; 4PD/Alexa555 complexes
Kd [1]: 3000 nM
fold increase of apparent Kd (avidity) against the free peptide [2]: ~1000 times
